In one assay the target is T1, SARS-CoV-2 南非beta突变型S1抗原 (SARS-CoV-2 beta variant, UniProt P0DTC2 16-685).
T1 construct: domain: S1; also called beta突变体抗原; beta变异突变株
Put plainly: SPR, Biacore T200, antigen coupled to CM5 chip, nanobody as analyte. For orientation: Surface plasmon resonance follows binding to a sensor surface in real time, without labels.

Assay [1] has as its target T2, SARS-CoV-2 印度delta突变型S1抗原 (SARS-CoV-2 delta variant, UniProt P0DTC2 16-685).
T2 construct: domain: S1; also called delta突变体抗原; delta变异突变株
The assay is described as above.

The values that follow come from patent CN117069831A (SHENZHEN BGI LIFE SCIENCE RES INSTITUTE, dated 2023).

B1: R-30 (VHH)
VHH: QVQLQESGGGLVQSGGSLRLSCTASGGIIRLNSMGWYRQAPGKQREPVATIVSDVGTNYADSVKGRFTISRDNAKNTIYLQMNSLKFEDTAVYYCVADRAFVLRGEYEYWGQGTQVTVSS
notes: also called 第一株RBD纳米抗体R-30
As for B1, the Kd (with SARS-CoV-2 南非beta突变型S1抗原; in assay [1]) was around 0.1 nM each time.

B2: S1-28 (VHH)
VHH: QVQLQESGGGLVQPGGSLRLSCTASGGIIRLNSMGWYRQAPGKQREPVATIVSDVGTNYADSVKGRFTISRDNAKNTIYLQMNSPKFEDTAVYYCVADRAFVLRGEYEYWGQGTQVTVSS
notes: also called 第二株RBD纳米抗体S1-28
For the molecule B2, the Kd (with SARS-CoV-2 南非beta突变型S1抗原; in assay [1]) was around 0.1 nM in each case.

B3: S1-51 (VHH)
VHH: QVQLQESGGGLVQSGGSLRLSCAASGGVSRLNSMGWYRQAPGKQRELVATIISDVGTNYADSVKGRFTISRDNAANTVYLQMNSLKFEDTAVYYCVADRAFVLRGEYEYWGQGTQVTVSS
notes: also called 第三株RBD纳米抗体S1-51
As to B3, the dissociation constant (Kd) (in the assay with SARS-CoV-2 南非beta突变型S1抗原; in assay [1]) was around 0.1 nM each time.

B4: S1-24 (VHH)
VHH: QVQLQESGGGLVQSGGSLRLSCAASGGVSRLNSMGWYRQAQGKQRELVATIVNDVGTNYADSVKGRFTISRDNAANTVYLLMNSLKFEDTAVYNCVADRAFVLRGEYEYWGQGTQVTVSS
notes: also called 第四株RBD纳米抗体S1-24
For the molecule B4, the Kd (with SARS-CoV-2 南非beta突变型S1抗原; in assay [1]) was around 0.1 nM each time.
